Measurements published in US7563864B2, “Prolyl endopeptidase mediated destruction of T cell epitopes in whole gluten” (Celiac Sprue Research Foundation, priority 2004, dated 2009).

How the values were obtained:
TCC 387.3 = assay: T cell clone assay, γ-VI specific clone; assay type: cell-based, human; details: FIG. 6B
Method: (§1) Prolyl endopeptidase (PEP) and Brush Border Membrane (BBM) treatment—Recombinant PEP (Sp. Act ˜40 U/mg) was added at a ratio of 200 mU/mg of the PTC-digested gluten substrate, and incubated at 37° C. for 15 min to 1 h and then heat de-activated, depending on the sample. Subsequently BBM (65 mU (DPP IV activity)/mg substrate) was added and the mixture was incubated for 1 h and heat de-activated. Control samples contained PEP and BBM buffer solutions without the enzymes.
(§2) T cell assays—The generation of polyclonal gluten-specific T cell lines derived from ex vivo gluten challenged small intestinal biopsy specimens of adult Celiac Sprue patients have been described elsewhere. For this study 14 different intestinal T cell lines derived from 13 DQ2+celiac patients were selected based on two basic criteria; effective recognition of TG2-treated digests of gluten and significant responses to at least two different gluten epitopes (Table 2). The generation of intestinal T cell clones and the epitope specificity of these clones, except TCC 387.3, has been described elsewhere (10). The TCC 387.3 recognizes a TG2-dependent epitope, defined as γ-VI that is contained within residues 62-72 (PQQPFPQQPQQ) of recombinant γ-5 gliadin. […] The proliferation in the wells was evaluated by ^3H thymidine incorporation from 48-72 hours after the addition of the T cells.

PEP activity assay = assay type: biochemical; details: recombinant PEP; pH 7.5, 37° C.
Method: Carboxypeptidase A: 995 μL 1.0 mM Hippuryl-L-Phe in 25 mM Tris and 500 mM NaCl, pH 7.5 was mixed with 5 μL Carboxypeptidase A (0.2 mg/ml). Absorption at 254 nm was recorded for 2′, every 10″. One unit hydrolyzes 1 μmol of Hippuryl-L-Phe per min at pH 7.5 and 25° C. Extinction coefficient 0.36 cm^2/μmol at 254 nm. PEP: To 10 μL Z-Gly-Pro-p-Nitroanilide 16.8 mg/ml in dioxane were added 70 μL dioxane, 120 μL water and 800 μL PBS buffer. This substrate solution was incubated at 37° C. for 10′; then 0.2-2 μL PEP were added and the absorption at 410 nm was recorded for 2′, every 10″. One unit hydrolyzes 1 μmol of Z-Gly-Pro-p-Nitroanilide per min at pH 7.5 and 37° C. Extinction coefficient 8.8 cm^2/μmol at 410 nm.

TCC 370 E3.19 = assay: T cell clone assay, α-III specific clone; assay type: cell-based, human; details: clone 370E3.19; FIGS. 6A and 6B
Method: as §1, §2

TCC 387 E9 = assay: T cell clone assay, α-I specific clone; assay type: cell-based, human; details: clone 387E9; FIGS. 6A and 6B; after 60 min PEP treatment
Method: as §1, §2

T cell clone 430.1.135 = assay: T cell clone assay, α-II specific clone; assay type: cell-based, human; details: FIGS. 6A and 6B
Method: as §1, §2

[1] = test system: polyclonal T cell lines derived from small intestinal biopsies of Celiac Sprue patients; assay: T cell assays, 14 polyclonal T cell lines taken together; assay type: cell-based, human; details: PEP in combination with gastric and pancreatic enzymes and brush border membrane enzymes; in most cases
Method: Gluten treatment with gastric and pancreatic enzymes—Wheat gluten flour (3.0 g) was added to 100 ml of water with addition of HCl to achieve a stable suspension at pH 2.0. Pepsin (Pepsin NF powder, 1:10000, 60 mg) was mixed in to the gluten suspension and the gluten-pepsin mixture was shaken constantly at 37° C. for 2 h. After the pepsin treatment had been completed, 350 mg of Na2HPO4 were added and the pH adjusted to 7.9 by addition of 0.1 M NaOH. Trypsin/Chymotrypsin (38 mg) were added and the mixture was shaken again at 37° C. for 2 h and then heated to >95° C. for 10 min. After cooling to room temperature, 74 μL of the mixture was treated with Elastase (20 μL, 1 mg/ml) and the mixture was diluted to 1.7 mg/ml using PBS buffer, pH=7.5. The mixture was maintained at 37° C. After 2 h the digested gluten suspension was heated to 95° C. for 10 minutes and cooled to room temperature. After this, 20 μL of Carboxypeptidase A were added and incubated for 2 h at 37° C., and subsequently heat deactivated. […]
T cell assays—The generation of polyclonal gluten-specific T cell lines derived from ex vivo gluten challenged small intestinal biopsy specimens of adult Celiac Sprue patients have been described elsewhere. […] The proliferation in the wells was evaluated by ^3H thymidine incorporation from 48-72 hours after the addition of the T cells.

B1: PEP: Recombinant prolyl endopeptidase, Flavobacterium meningosepticum enzyme (protein, UniProt P27028 21-705, looked up)
Prolyl endopeptidase: QNSNVLKYPETKKVSHTDTYFGTQVSDPYRWLEDDRAEDTKAWVQQEVKFTQDYLAQIPFRDQLKKQLMDIWNYEKISAPFKKGKYTYFSKNDGLQAQSVLYRKDAAGKTEVFLDPNKFSEKGTTSLASVSFNKKGTLVAYSISEGGSDWNKIIILDAETKKQLDETLLDVKFSGISWLGDEGFFYSSYDKPKEGSVLSGMTDKHKVYFHKLGTKQSQDELIIGGDKFPRRYIGAYVTDDQRYLVVSAANATNGNELYIKDLKNKTDFIPIITGFDSNVNVADTDGDTLYLFTDKDAPNKRLVKTTIQNPKAETWKDVIAETSEPLEINTGGGYFFATYMKDAIDQVKQYDKNGKLVRAIKLPGSGNASGFGGEKTEKDLYYSFTNYITPPTIFKYNVTTGNSEVYQKPKVKFNPENYVSEQVFYTSSDGTKIPMMISYKKGLKKDGKNPTILYSYGGFNISLQPAFSVVNAIWMENGGIYAVPNIRGGGEYGKKWHDAGTKMQKKNVFNDFIAAGEYLQKNGYTSKEYMALSGRSNGGLLVGATMTMRPDLAKVAFPGVGVLDMLRYNKFTAGAGWAYDYGTAEDSKEMFEYLKSYSPVHNVKAGTCYPSTMVITSDHDDRVVPAHSFKFGSELQAKQSCKNPILIRIETNAGHGAGRSTEQVVAENADLLSFALYEMGIKSLK
For B1, the “T cell clone response to treated gluten: destruction of the γ-VI epitope” value (TCC 387.3) was “persist for longer durations”, the “specific activity (Sp. Act)” value (PEP activity assay) was about 40 U/mg and the “T cell clone response to treated gluten: destruction of the α-III epitope” value (TCC 370 E3.19) was “almost completely destroyed at the earliest time point”. The “T cell clone response to treated gluten: destruction of the α-I epitope” value (TCC 387 E9) was “retains some activity”, the “T cell clone response to treated gluten: destruction of the α-II epitope” value (T cell clone 430.1.135) was “almost completely destroyed at the earliest time point” and the “immune response of patient derived intestinal T cells, relative to the response induced by positive controls” value [1] was “less than 2%”.
